Legend:
[1] = biological target: PEX14 16-80 (Homo sapiens) (UniProt O75381); assay: SPR; conditions: cited from earlier work
[2] = biological target: PEX14 16-80 (Homo sapiens) (UniProt O75381); assay: ITC; conditions: cited from earlier work
[3] = biological target: His-tagged transcriptional activation domain of the tumor suppressor protein p53 (UniProt P04637); assay: solution-phase LSPR peak shift of nanoparticles (UV–vis); hTAD ([…]) immobilised by its His-tag on NTA-Ni AgDNP@Au nanobiosensors (~0.025 nM), NCBD (0.27 μM) added; 10 mM Tris, 30 mM NaCl, 0.025 wt % Tween 20, pH 7.5; near equilibrium (25 min)
[4] = biological target: His-tagged transcriptional activation domain of the tumor suppressor protein p53 (UniProt P04637); assay: solution-phase LSPR peak shift of nanoparticles (UV–vis); hTAD ([…]) immobilised by its His-tag on NTA-Ni AgDNP@Au nanobiosensors (~0.025 nM), NCBD (0.27 μM) or BSA ([…]) added; 10 mM Tris, 150 mM NaCl, 0.025 wt % Tween 20, pH 7.5; near equilibrium (25 min)
[5] = biological target: His-tagged transcriptional activation domain of the tumor suppressor protein p53 (UniProt P04637); assay: solution-phase LSPR peak shift of nanoparticles (UV–vis); hTAD ([…]) immobilised by its His-tag on NTA-Ni AgDNP@Au nanobiosensors (~0.025 nM), NCBD (0.27 μM) added; 10 mM Tris, 10 mM NaCl, 0.025 wt % Tween 20, pH 7.5; nanoparticles aggregated after several minutes

Chain of His-tagged transcriptional activation domain of the tumor suppressor protein p53 (P04637 whole entry, the tested form may be a part): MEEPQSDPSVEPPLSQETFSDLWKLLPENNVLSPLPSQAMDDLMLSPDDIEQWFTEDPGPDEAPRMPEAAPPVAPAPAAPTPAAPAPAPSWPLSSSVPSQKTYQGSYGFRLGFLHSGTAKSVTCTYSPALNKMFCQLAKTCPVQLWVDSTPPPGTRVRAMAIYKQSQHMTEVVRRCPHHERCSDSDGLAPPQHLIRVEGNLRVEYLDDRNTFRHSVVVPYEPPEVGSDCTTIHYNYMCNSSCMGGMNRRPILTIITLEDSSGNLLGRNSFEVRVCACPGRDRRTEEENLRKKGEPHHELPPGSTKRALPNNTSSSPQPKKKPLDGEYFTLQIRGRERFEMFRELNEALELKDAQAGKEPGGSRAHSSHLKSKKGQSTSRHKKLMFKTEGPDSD
Chain of PEX14 16-80 (Homo sapiens) (O75381 16-80): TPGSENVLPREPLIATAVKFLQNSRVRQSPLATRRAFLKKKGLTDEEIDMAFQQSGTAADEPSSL

Substance | Kd [1] [nM] | Kd [2] [nM] | second LSPR peak redshift (30 mM NaCl) [3] [nm] | second LSPR peak redshift (150 mM NaCl) [4] [nm] | LSPR peak redshift after addition of NCBD (10 mM NaCl) [5] [nm]
PEX5 1-113 (from UniProt P50542) | 87 | 157 |  |  | 
PEX5 W4 motif W4 (from UniProt P50542) |  | 6300 |  |  | 
nuclear receptor coactivator binding domain of the CREB-binding protein (from UniProt Q92793 1-2442) (domain or fragment) |  |  | 3.2 | 1 | 6.2

From article PMC11959585
